Measurements reported in patent WO2013005649A1 (dated 2013).
Positions count from the first letter of the chain named. Non-standard residues stand in square brackets, D forms with d. No end group written: not given here. sY = N[C@@H](Cc1ccc(OS(=O)(=O)O)cc1)C(=O)O

T1: cynomolgus monkey CCR6 (isoform 1, 177Val type) with C-terminal His tag, on CHO-cynomolgus CCR6 cells (cynomolgus monkey, UniProt P51684 1-374 (human entry))
T1 construct: also called mfCCR6
T1 chain: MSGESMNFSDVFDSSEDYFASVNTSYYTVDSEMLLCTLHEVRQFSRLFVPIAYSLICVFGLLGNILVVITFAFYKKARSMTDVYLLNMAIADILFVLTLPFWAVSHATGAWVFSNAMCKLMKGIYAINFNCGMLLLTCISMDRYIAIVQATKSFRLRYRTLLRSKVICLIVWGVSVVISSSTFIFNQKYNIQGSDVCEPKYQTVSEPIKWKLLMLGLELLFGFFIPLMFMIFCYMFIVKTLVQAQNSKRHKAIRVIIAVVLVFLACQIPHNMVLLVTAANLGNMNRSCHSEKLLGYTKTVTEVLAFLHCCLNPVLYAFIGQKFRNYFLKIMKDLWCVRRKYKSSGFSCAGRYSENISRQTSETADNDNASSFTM

T2: synthetic peptide CCR6-1 (1st to 17th amino acids of human CCR6) (human, also: 11 PEG units at the C-terminal side)
T2 construct: also called CCR6-1 peptide
T2 peptide: MSGESMNFSDVFDSSEDC

T3: synthetic peptide CCR6-2S (9th to 23rd amino acids of human CCR6, Tyr18-sulfation) (human)
T3 construct: also called CCR6-2S peptide; P2: CCR6-2S(B)
T3 peptide: CSDVFDSSED[sY]FVSVN

T4: synthetic peptide CCR6-4 (30th to 46th amino acids of human CCR6) (human, also: 11 PEG units at the N-terminal side)
T4 construct: also called CCR6-4 peptide
T4 peptide: DSEMLLSSLQEVRQFSRC

T5: synthetic peptide CCR6-3 (20th to 34th amino acids of human CCR6) (human, Cys residue introduced at the N-terminal or C-terminal side)
T5 construct: also called CCR6-3 peptide
T5 peptide: CVSVNTSYYSVDSEML

T6: synthetic peptide CCR6-2 (9th to 23rd amino acids of human CCR6) (human, not fully specified)
T6 construct: Not sulfated; also called CCR6-2 peptide; P3: CCR6-2(B)
T6 peptide: CSDVFDSSEDYFVSVN

T7: human CCR6 with C-terminal His tag, on CHO-hCCR6 (isoform1) or U937-CCR6 cells (human, UniProt P51684 1-374)
T7 construct: Expressed from pKANTEX-hCCR6 (isoform1) in CHO/DG44 cells (CHO-hCCR6) and in U937 cells (U937-CCR6); also called hCCR6-His-tag
T7 sequence: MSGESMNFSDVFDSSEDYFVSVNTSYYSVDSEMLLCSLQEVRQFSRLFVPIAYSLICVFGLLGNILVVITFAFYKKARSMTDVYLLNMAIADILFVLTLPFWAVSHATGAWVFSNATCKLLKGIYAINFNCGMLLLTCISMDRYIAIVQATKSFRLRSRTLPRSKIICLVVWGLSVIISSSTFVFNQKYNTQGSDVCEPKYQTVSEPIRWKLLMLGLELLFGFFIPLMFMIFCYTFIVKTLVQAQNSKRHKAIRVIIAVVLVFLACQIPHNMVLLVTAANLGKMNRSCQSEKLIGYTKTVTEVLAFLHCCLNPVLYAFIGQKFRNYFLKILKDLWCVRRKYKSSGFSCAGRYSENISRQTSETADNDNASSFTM

B1: anti-human CCR6 chimeric antibody KM4592 chimera (antibody, human IgG1, V domains shown)
VH: DVQLVESGGGLVQPGGSRKLSCAASGFTFSSFGMHWVRQAPEKGLEWVAYISTGSGSIYYADTVKGRFTISRDNPKNTLFLQMTSLRSEDTAIYYCLKGGDGYYVAAWFAYWGQGTLVTVSA
VL: DIVLTQAAPSVSVTPGESVSISCRSSKSLLHTNDNTYLYWFLQRPGQSPQLLIYRMSNLASGVPDRFSGSGSGTAFTLRISRVEAEDVGVYYCMQHLEYPLTFGAGTKLELK
B2: anti-human CCR6 chimeric antibody KM4705 chimera (antibody, human IgG1, V domains shown)
VH: EVQLVETGGGLVQPKGSLKLSCAASGFSFKTNAMNWVRQAPGKGLEWVARIRSKINNYATYYADSVKDRFTISRDDSQSMLYLQMNNLKTEDTAMYYCVSDHYGYGAVDYWGQGTSVTVSS
VL: DIQMNQSPSSLSASLGDTITITCRASQNINIWLSWYQQKPGSIPKLLIYKASNLHTGVSSRFSGSGYGTDFTLTISSLQPEDIATYYCLQGRSYPLTFGGGTNLEIK
B3: anti-human CCR6 chimeric antibody KM4703 chimera (antibody, human IgG1, V domains shown)
VH: QVQMKETGPGLVQPTQTLSLTCTVSGFSLTSSRVHWVRQPPGKGLEWMGVIYYDGKTDYNATLKSRLSISRDTSKSQVFLKINSLQTDDTAMYYCAGGVIMDAWGQGASVTVSP
VL: DVLMTQIPVSLPVSLGGQVAISCRSSQSLVHTDGNTYLHWYLQKPGQSPQLLIYRVSNRFSGVPDRFSGSGSGTDFTLKISRVEPEDLGVYYCSQRTYFPLTFGSGTKLEIK
B4: anti-human CCR6 chimeric antibody KM4704 chimera (antibody, human IgG1, V domains shown)
VH: EVQLQESGPGLVKPSQSLSLTCSVTGYSITSNYWGWIRKFPGNKMEWMGYTSSSGSTSYNPYLKSRISITRDTSKNQFFLKLNSVTTEDTATYYCTGGYVMDAWGQGASVTVSS
VL: B3 VL with I7T, A20S, T32S, S94L, F99V, L101W, S105G, E110D, I111L
B5: anti-human CCR6 mouse monoclonal antibody KM4592 (antibody, V domains shown)
VH: B1 VH
VL: B1 VL
B6: anti-human CCR6 mouse monoclonal antibody KM4705 (antibody, mouse IgG2b, V domains shown)
VH: B2 VH
VL: B2 VL
B7: anti-human CCR6 rat monoclonal antibody KM4703 (antibody, rat IgG2b, V domains shown)
VH: B3 VH
VL: B3 VL
B8: anti-human CCR6 rat monoclonal antibody KM4704 (antibody, rat IgG2b, V domains shown)
VH: B4 VH
VL: B3 VL with I7T, A20S, T32S, S94L, F99V, L101W, S105G, E110D, I111L

Biological target: T1, cynomolgus monkey CCR6 (isoform 1, …)
Assay: flow cytometry on CHO-cynomolgus CCR6 cells
B1: binds.
B2: binds.
B3: binds.
B4: binds.

Biological target: T1, cynomolgus monkey CCR6 (isoform 1, …)
Assay: flow cytometry on CHO-cynomolgus CCR6 cells, 0.0001 to 10 μg/mL antibody
B5: binds.
B6: binds.
B7: binds.
B8: binds.

Biological target: T2, synthetic peptide CCR6-1 (1st to 17th …)
Assay: binding ELISA on coated peptide
B1: no binding.
B5: no binding (tested: 10 μg/mL).
B2: binds.
B3: no binding.
B7: no binding (tested: 10 μg/mL).
B4: no binding.
B8: no binding (tested: 10 μg/mL).

Biological target: T3, synthetic peptide CCR6-2S (9th to 23rd …)
Assay: binding ELISA on coated peptide
B2: binds.

Biological target: T4, synthetic peptide CCR6-4 (30th to 46th …)
Assay: binding ELISA on coated peptide
B5: no binding (tested: 10 μg/mL).
B6: no binding (tested: 10 μg/mL).
B7: no binding (tested: 10 μg/mL).
B8: no binding (tested: 10 μg/mL).

Biological target: T5, synthetic peptide CCR6-3 (20th to 34th …)
Assay: binding ELISA on coated peptide
B5: no binding (tested: 10 μg/mL).
B6: no binding (tested: 10 μg/mL).
B7: no binding (tested: 10 μg/mL).
B8: no binding (tested: 10 μg/mL).

Biological target: T6, synthetic peptide CCR6-2 (9th to 23rd …)
Assay: binding ELISA on coated peptide
B2: binds.

These binders were tested against T7, human CCR6 with C-terminal His tag, on … (assay: flow cytometry on CHO-hCCR6 cells, 0.0001 to 10 μg/mL antibody).
B5: binds.
B6: binds.
B7: binds.
B8: binds.

Biological target: T2, synthetic peptide CCR6-1 (1st to 17th …)
Assay: binding ELISA on coated peptide, 10 μg/mL antibody
B6: binds.

Biological target: T3, synthetic peptide CCR6-2S (9th to 23rd …)
Assay: binding ELISA on coated peptide, 10 μg/mL antibody
B6: binds.

Biological target: T6, synthetic peptide CCR6-2 (9th to 23rd …)
Assay: binding ELISA on coated peptide, 10 μg/mL antibody
B6: binds.

Each binder was assayed against T7, human CCR6 with C-terminal His tag, on … (assay: flow cytometry on CHO-hCCR6 cells).
B1: binds.
B2: binds.
B3: binds.
B4: binds.

These binders were tested against T8, human CCR6 N-terminal extracellular domain Fc fusion protein NthCCR6-IgG4Fc (human, contains a sulfated Tyr residue; N-linked sugar chains) (assay: SPR, Biacore T100; NthCCR6-IgG4Fc captured on anti-human IgG CM5 chip, antibody injected).
T8 construct: Made in CHO/DG44 cells; also called NthCCR6-Fc; NtCCR6-IgG4Fc
T8 sequence (chain, as listed by the source limits assumed): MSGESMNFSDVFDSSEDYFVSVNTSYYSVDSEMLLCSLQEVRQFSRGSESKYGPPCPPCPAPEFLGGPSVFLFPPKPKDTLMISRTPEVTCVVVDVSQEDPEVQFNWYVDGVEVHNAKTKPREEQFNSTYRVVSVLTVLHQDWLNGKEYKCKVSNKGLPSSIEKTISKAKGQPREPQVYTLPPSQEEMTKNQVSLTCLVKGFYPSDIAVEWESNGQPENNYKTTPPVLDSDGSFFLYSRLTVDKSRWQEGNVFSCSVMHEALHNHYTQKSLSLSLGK
In the case of B5, the Kd is reported as 380 pM.
With B6 the Kd was 6520 pM.
Binder B7 has a Kd of 1150 pM.
B8 gave a Kd of 670 pM.
